Laboratory results: patent US20020119521A1

Legend:
Experiment in all cases: cell-based or functional assay
[1] = target: VP16AD-CfUSPDEF chimeric polypeptide (Choristoneura fumiferana)
[2] = target: VP16AD-MmRXRDEF chimeric polypeptide (Mus musculus)
[3] = target: VP16AD-CfEcRCDEF chimeric polypeptide (Choristoneura fumiferana)
[4] = target: VP16AD-DmEcRCDEF chimeric polypeptide (Drosophila melanogaster)
[5] = target: Full length MmRXR (mouse Mus musculus RXR alpha) (Mus musculus) (UniProt P28700)
[6] = target: T1, B42AD:MmRXR-DEF fusion (Mus musculus)
T1 sequence: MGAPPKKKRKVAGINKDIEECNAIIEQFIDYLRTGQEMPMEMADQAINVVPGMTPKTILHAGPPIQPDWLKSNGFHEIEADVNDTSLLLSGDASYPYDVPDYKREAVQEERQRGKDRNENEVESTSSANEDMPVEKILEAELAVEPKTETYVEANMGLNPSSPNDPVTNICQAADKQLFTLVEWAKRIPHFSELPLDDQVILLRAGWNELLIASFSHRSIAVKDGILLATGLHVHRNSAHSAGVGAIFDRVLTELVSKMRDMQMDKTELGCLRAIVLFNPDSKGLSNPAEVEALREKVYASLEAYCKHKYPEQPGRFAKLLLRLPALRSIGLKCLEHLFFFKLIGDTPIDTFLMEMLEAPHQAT

Gal4DBD-CfEcRDEF chimeric polypeptide (receptor)
Mean Fold Activation Through N-(2-ethyl-3-methoxybenzoyl)-N'-(3,5-dimethylbenzoyl)-N'-t-butylhydrazine; pGAL4RELuc reporter, 3T3 cells [1]: 2 fold
Mean Fold Activation Through N-(2-ethyl-3-methoxybenzoyl)-N'-(3,5-dimethylbenzoyl)-N'-t-butylhydrazine; pGAL4RELuc reporter, 293 cells [1]: 2 fold
Mean Fold Activation with 50 µM N-(2-ethyl-3-methoxybenzoyl)-N'-(3,5-dimethylbenzoyl)-N'-t-butylhydrazine; pGAL4RELuc reporter, CHO cells [1]: 2 fold
Mean Fold Activation Through N-(2-ethyl-3-methoxybenzoyl)-N'-(3,5-dimethylbenzoyl)-N'-t-butylhydrazine; pGAL4RELuc reporter, 3T3 cells [2]: 1120 fold
Mean Fold Activation Through N-(2-ethyl-3-methoxybenzoyl)-N'-(3,5-dimethylbenzoyl)-N'-t-butylhydrazine; pGAL4RELuc reporter, 293 cells [2]: 125 fold
Mean Fold Activation with 50 µM N-(2-ethyl-3-methoxybenzoyl)-N'-(3,5-dimethylbenzoyl)-N'-t-butylhydrazine; pGAL4RELuc reporter, CHO cells [2]: 267 fold
Mean Fold Induction at 1.0 µM Concentration of Muristerone A; switch 1.1 in 3T3 cells [2]: 1 fold
Mean Fold Induction at 1.0 µM Concentration of N'-(3,4-(1,2-ethylenedioxy)-2-methylbenzoyl)-N'-(3,5-dimethylbenzoyl)-N'-tert-butylhydrazine; switch 1.1 in 3T3 cells [2]: 601 fold
Mean Fold Induction at 1.0 µM Concentration of N-(2-ethyl-3-methoxybenzoyl)-N'-(3,5-dimethylbenzoyl)-N'-tert-butylhydrazine; switch 1.1 in 3T3 cells [2]: 116 fold
Mean Fold Induction at 1.0 µM Concentration of Ponasterone A; switch 1.1 in 3T3 cells [2]: 1 fold
ligand concentration at which transactivation was initiated (non-steroid ligands) [2]: < 1 µM
ligand concentration at which transactivation was initiated (steroid ligands) [2]: 50 µM

Gal4DBD-CfUSPDEF chimeric polypeptide (receptor)
Mean Fold Activation Through N-(2-ethyl-3-methoxybenzoyl)-N'-(3,5-dimethylbenzoyl)-N'-t-butylhydrazine; pGAL4RELuc reporter, 3T3 cells [3]: 3 fold
Mean Fold Activation Through N-(2-ethyl-3-methoxybenzoyl)-N'-(3,5-dimethylbenzoyl)-N'-t-butylhydrazine; pGAL4RELuc reporter, 293 cells [3]: 2 fold
Mean Fold Activation with 50 µM N-(2-ethyl-3-methoxybenzoyl)-N'-(3,5-dimethylbenzoyl)-N'-t-butylhydrazine; pGAL4RELuc reporter, CHO cells [3]: 2 fold

Gal4DBD-MmRXRDEF chimeric polypeptide (receptor)
Mean Fold Activation Through N-(2-ethyl-3-methoxybenzoyl)-N'-(3,5-dimethylbenzoyl)-N'-t-butylhydrazine; pGAL4RELuc reporter, 3T3 cells [3]: 47 fold
Mean Fold Activation Through N-(2-ethyl-3-methoxybenzoyl)-N'-(3,5-dimethylbenzoyl)-N'-t-butylhydrazine; pGAL4RELuc reporter, 293 cells [3]: 17 fold
Mean Fold Activation with 50 µM N-(2-ethyl-3-methoxybenzoyl)-N'-(3,5-dimethylbenzoyl)-N'-t-butylhydrazine; pGAL4RELuc reporter, CHO cells [3]: 85 fold
Mean Fold Induction at 1.0 µM Concentration of Muristerone A; switch 1.3 in 3T3 cells [3]: 1 fold
Mean Fold Induction at 1.0 µM Concentration of N'-(3,4-(1,2-ethylenedioxy)-2-methylbenzoyl)-N'-(3,5-dimethylbenzoyl)-N'-tert-butylhydrazine; switch 1.3 in 3T3 cells [3]: 54 fold
Mean Fold Induction at 1.0 µM Concentration of N-(2-ethyl-3-methoxybenzoyl)-N'-3,5-dimethylbenzoyl)-N'-tert-butylhydrazine; switch 1.3 in 3T3 cells [3]: 71 fold
Mean Fold Induction at 1.0 µM Concentration of Ponasterone A; switch 1.3 in 3T3 cells [3]: 1 fold
Mean Fold Activation Through N-(2-ethyl-3-methoxybenzoyl)-N'-(3,5-dimethylbenzoyl)-N'-t-butylhydrazine; pGAL4RELuc reporter, 3T3 cells [4]: 269 fold
Mean Fold Activation Through N-(2-ethyl-3-methoxybenzoyl)-N'-(3,5-dimethylbenzoyl)-N'-t-butylhydrazine; pGAL4RELuc reporter, 293 cells [4]: 3 fold
Mean Fold Activation with 50 µM N-(2-ethyl-3-methoxybenzoyl)-N'-(3,5-dimethylbenzoyl)-N'-t-butylhydrazine; pGAL4RELuc reporter, CHO cells [4]: 312 fold

Truncated CfEcR comprising a partial A/B domain and the complete CDEF domains, fused to VP16AD (CfVgRXR) (receptor)
Mean Fold Activation Through N-(2-ethyl-3-methoxybenzoyl)-N'-(3,5-dimethylbenzoyl)-N'-t-butylhydrazine; pIND(SP1)LacZ reporter, 3T3 cells [5]: 19 fold
Mean Fold Activation Through N-(2-ethyl-3-methoxybenzoyl)-N'-(3,5-dimethylbenzoyl)-N'-t-butylhydrazine; pIND(SP1)LacZ reporter, 293 cells [5]: 12 fold
Mean Fold Activation with 50 µM N-(2-ethyl-3-methoxybenzoyl)-N'-(3,5-dimethylbenzoyl)-N'-t-butylhydrazine; pIND(SP1)LacZ reporter, CHO cells [5]: 27 fold

Drosophila melanogaster EcR with a modified DNABD fused to VP16AD (DmVgRXR system, Invitrogen) (receptor)
Mean Fold Activation Through N-(2-ethyl-3-methoxybenzoyl)-N'-(3,5-dimethylbenzoyl)-N'-t-butylhydrazine; pIND(SP1)LacZ reporter, 3T3 cells [5]: 21 fold
Mean Fold Activation Through N-(2-ethyl-3-methoxybenzoyl)-N'-(3,5-dimethylbenzoyl)-N'-t-butylhydrazine; pIND(SP1)LacZ reporter, 293 cells [5]: 21 fold
Mean Fold Activation with 50 µM N-(2-ethyl-3-methoxybenzoyl)-N'-(3,5-dimethylbenzoyl)-N'-t-butylhydrazine; pIND(SP1)LacZ reporter, CHO cells [5]: 14 fold

B1: LexA:CfEcRDEF fusion (receptor)
chain: MKALTARQQEVFDLIRDHISQTGMPPTRAEIAQRLGFRSPNAAEEHLKALARKGVIEIVSGASRGIRLLQEEEEGLPLVGRVAAGEPLLAQQHIEGHYQVDPSLFKPNADFLLRVSGMSMKDIGIMDGDLLAVHKTQDVRNGQVVVARIDDEVTVKRLKKQGNKVELLPENSEFKPIVVDLRQQSFTIEGLAVGVIRNGDWLPECVVPETQCAMKRKEKKAQKEKDKLPVSTTTVDDHMPPIMQCEPPPPEAARIHEVVPRFLSDKLLETNRQKNIPQLTANQQFLIARLIWYQDGYEQPSDEDLKRITQTWQQADDENEESDTPFRQITEMTILTVQLIVEFAKGLPGFAKISQPDQITLLKACSSEVMMLRVARRYDAASDSVLFANNQAYTRDNYRKAGMAYVIEDLLHFCRCMYSMALDNIHYALLTAVVIFSDRPGLEQPQLVEEIQRYYLNTLRIYILNQLSGSARSSVIYGKILSILSELRTLGMQNSNMCISLKLKNRKLPPFLEEIWDVADMSHTQPPPILESPTNL
fold induction of the LacZ reporter in a yeast two-hybrid assay with GS-E [6]: 1800 fold
